# In the nanobody polyreactivity screen of Harvey et al. (2022):
# Assay: yeast display, Sf9 membrane polyspecificity reagent, FACS + sequencing; frameworks hold sequencing errors
# Summary of the method: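 A synthetic nanobody library was expressed on Saccharomyces cerevisiae BJ5465 by galactose induction for 36–48 hours. The library was stained for 1 hour at 4 °C with 10% biotinylated, detergent-solubilized Sf9 membrane reagent and enriched with streptavidin microbeads before FACS. Low and high (top ~1%) gates were set on anti-HA fluorescence for expression and streptavidin fluorescence for reagent binding, and each polyreactivity label reflects the gate of origin.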
row,Sequence,polyreactivity (PSR sort gate)
1,QVQLVESGGGLVQAGGSLRLTCAASGGTFQYYSMGWYRQAPGKERELVAAITTSGGSTYYADSVKGRFTISRDNAKNTDYLQMNSLKPEDTAVYYCAAGRGYRGYVRYYYWGQGTQVTVSS,high polyreactivity
2,QVQLVESGGGLVQAGGSLRLSCAASGRTFYPSAMGWYRQAPGKERQLVAAITTSGGRTYYADSVKGRFTISRDNAKNTVYLQMNSLKPEDTAVYYCAKAYREGEGKFDYWGQGTQVTVSS,high polyreactivity
3,QVQLVESGGGLVQAGGSLRLSCAASGFIFRRYAMGWYRQAPGKERELVAAISWSGGSTYYADSVKGRFTISRDNAKNTVYLQMNSLKPEDTAVYYCAKVPTSASPYDHWGQGTQVTVSS,high polyreactivity
4,QVQHVESRGGLVQAGGSLRLSCAASGRIFPRYAMGWYRQAPGKERELVAAISWSGGSTYYADSVKGRFTISRDNAKNTVYLQMNSLKPEDTAVYYCAARGRLRYSGSIIYYWGQGTQVTVSS,high polyreactivity
5,QVQLVDSGGGLVQAGGSLRLSCAASGRTLWYYTMGWYRQAPGKERELVADITRGTSTNYADSVKVRFTISRDNAKNTVYLQMNSLKPEDTAVYYCNRAHGRSRYSRDYDSWGQGTQVTVSS,low polyreactivity
6,QVQLVESGGGLVQAGGSLRLSCAASGRTFSANAMGWYRQAPGKERELVATISSGGRTNYADSVKGRFTISRDNAKNTVYLQMNSLKPEDTAVYYCAKRGPYNRWYGRYDYWGQGTQVTVSS,low polyreactivity
7,QVQLVESGGGLVQAGGSLRLSCAASGSIFRFNPMGWYRQAPGKERELVAAISWSGGLTYYADSVKGRFTISRDNAKNTVSLQMNSLKPEDTAVYYCNAGRRYPLRYDYWGQGTQVTVSS,high polyreactivity
8,QVQLVESGGRLVQAVGSLRLRCAAAGRTFPVYAMGWYRQAPGKERELVAAIRGRSVRKYYADSVKGRFTISRDYAKNTVYLQMNSLKPEDTAVYYCAAYYLNPGMDYWGQGTQVTVSS,high polyreactivity
9,QVQLVESGGGLVQAGGSLRLSCAASGRTFHRNAMGWYRQAPGKERELVAAITGDGRTNYADSVKGRFTITRDNAKNTVSLQMNSLKPEDTAVYYCFSYDYDYWGQGTQVTVSS,low polyreactivity
10,QVQLVESGGGLVQAGGSLRLSCAASGRTFDEYAMGWYRQAPGKERELVDAINSSGNTYYADSVKGRFTISRDNAKNTVYLQMNSLKPEDTAVYYCAVRSYNTIYDDMDYWGQGTQVTVSS,low polyreactivity
11,QVQLVESGGGLVQAGGSLRLSCAASGRTFGRYALGWYRQAPGKERELVAAIRSGGSTYYADSVKGRFTISRDNAKNTVYLQMNSLKPEDTAVYYCAADIARHLTGFAYYRLDYWGQGTQVTVSS,low polyreactivity
12,QVQLVESGGGLVQAGGSLRLSCAASGITFEYYAMGWYRQAPGKERELVAAIDTVGSTNYADSVKGRFTISRDNAKNTVYLQMNSLKPEDTAVYYCAADWSWWDGEDYHFEYDYWGQGTQVTVSS,low polyreactivity
13,QVQLVESGGGLVQAGGSLRLSCAASGGTFGVYYAMGRYRQAPGKERELVADISWSAGSTYYADSVKGRFTISRDNAKNTVYLQMNSLKPEDTAVYYCAARYAVYWPWYVREYDYWGQGTQVTVSS,low polyreactivity
14,QVQLVESGGGLVQAGGSLRLSCAASGFILRRYTMGWYRQAPGKEREFVAGISWRGGSTYYADSVKGRFTISRDNAKNTVYLQMNSLKPEDTAVYYCAAETYQLTWVLYYYWGQGTQVTVSS,high polyreactivity
15,QDQLVESGGGLVQAGGSLRLSCAASGFTFYSYAMGWYRQAPGKEREFVATITSSGGSTYYADSVKGRFTISRDTAKNTVYLQINSLNTEDTAVYYCAKDRYLYYRRRGQYDYWGQGTQVTVSS,high polyreactivity
16,QVQQLESGGGLVQAGGSLRLSSAASGTIFRISDMGSYRQAPGTEREFVAAITYGANTYYADSGKGRFTISRDNAKNTVYRQMNSLKPDDTAVYDCAVPPVKESILDYWGQGTQVTVSR,low polyreactivity
17,QVQLVESGGGLVQAGGSLRLSCAASGFIFATYAMGWYRQAPGKDRELVAAISRSGGSTYYADSVKGRFTISRDTAKNTVYSQMNCLKPEDTAVYYCAADSDPAPPDYDYWGQGTQVTVSS,high polyreactivity
18,QVQLVESGGGLVQAGGSLRLSCAASGFTFSAYAMGWSRQAPGKERELVAAITLRGGSTYYADSVKGRFTISRDNAKNTVYLQMNSLKPEDTAVYYCAADRIYVAYDYWGQGTQVTVSS,low polyreactivity
19,QVQLVESGGGLVQAGGSLRLSCAASGIQVYNAMGWYRQAPGKERELVAAISARGGRTYYADSVKGRFTISRDNAKNTVYLQMNSLKPEDTAVYYCATLETTGVNYWGQGTLVTVSS,high polyreactivity
20,QVHHVESCGGLVQAGGSLRLSCAASGRTFVYYAMGWYRQAPGKEREFVAAISRSGGRTSYAYSVKGRFTISRDNPKNTVYLPMNSLKPEDTAVYYCGAEKRTQPTSREYYWGQGTQVTVSS,high polyreactivity
21,QVQLVESGGGLVQAGGSLRLSCAASGRTLGQYEMGWYRQAPGTERELVAAITSSDGITYYADSVKGRFTISRDNAKNTVYLQMNSLKPEDTAVYYCASDYPYYWYWTYLYDYCGQGTQVTVSS,low polyreactivity
22,QVQLVESVGGLDQAGGSLRLSCAASGSTFGGYAMGWYRQAPGKERELVAAISSSGTSTYYADSVKGRFTISRDNAKNTVYLQMNSLKPEDNAVYYCATDFSFFSRFDYWGQGTQVTVSS,low polyreactivity
